According to patent publication US20260347491:

Target: human CD32b (FcgRIIb) (human) (UniProt P31994)
Assay: FACS

Chain of human CD32b (FcgRIIb) (human) (P31994 46-217): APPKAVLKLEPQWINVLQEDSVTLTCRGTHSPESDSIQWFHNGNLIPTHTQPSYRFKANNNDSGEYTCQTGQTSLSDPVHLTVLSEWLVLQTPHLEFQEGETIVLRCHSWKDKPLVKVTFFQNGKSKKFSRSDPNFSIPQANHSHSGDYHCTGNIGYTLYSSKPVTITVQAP

EC50 [nM] | Substance
1.35 | Pertuzumab (full)
14.1 | Trastuzumab (full)
